The source of these data is publication PMC6923591.

Experiment [1] deals with Ptpn6 wt C-SH2 domain (recombinant C-terminal SH2 domain of Ptpn6/SHP-1). Nature of the experiment: ITC. (In general: ITC needs no label: the signal is the heat of the interaction.)
Experiment [2] concerns the target Ptpn6 Y208N C-SH2 domain (recombinant C-terminal SH2 domain of Ptpn6/SHP-1 with Y208N). Put plainly: ITC.

By Kd is commonly meant the concentration at which binding is half-saturated. Turning to FcγR2b phosphopeptide, the Kd in experiment [1] was found to be 20.1 µM; in experiment [2] it was 10.4 µM.
